Results published in paper PMC4133262, “Discovery of a Eukaryotic Pyrroloquinoline Quinone-Dependent Oxidoreductase Belonging to a New Auxiliary Activity Family in the Database of Carbohydrate-Active Enzymes” (PLoS ONE, 2014).

T1: PQQ domain of CcSDH (Coprinopsis cinerea, UniProt A0A0A8IDB7)
T1 construct: gene PDH; PQQ dehydrogenase domain only: N-terminal 221 residues (heme domain) and last 77 C-terminal residues (with CBM1) removed; begins at T222 (primer encodes TFVSC); secreted from Pichia pastoris
T1 sequence (A0A0A8IDB7 240-649): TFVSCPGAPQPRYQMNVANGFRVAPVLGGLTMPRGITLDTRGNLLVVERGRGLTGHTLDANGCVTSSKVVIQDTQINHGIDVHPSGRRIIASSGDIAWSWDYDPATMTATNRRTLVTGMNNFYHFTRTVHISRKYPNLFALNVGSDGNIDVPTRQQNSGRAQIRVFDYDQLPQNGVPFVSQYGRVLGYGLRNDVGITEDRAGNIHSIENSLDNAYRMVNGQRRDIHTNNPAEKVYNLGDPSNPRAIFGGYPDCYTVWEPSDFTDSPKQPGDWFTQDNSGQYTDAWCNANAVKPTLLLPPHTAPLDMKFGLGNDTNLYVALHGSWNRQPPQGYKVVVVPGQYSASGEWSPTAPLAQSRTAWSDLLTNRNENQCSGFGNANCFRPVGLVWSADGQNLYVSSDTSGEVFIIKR


Assays:
[1] = molecular target: T1, PQQ domain of CcSDH; test: isothermal titration calorimetry, single-site model; format: binding
[2] = substrate: O=CC(=O)[C@@H](O)[C@H](O)[C@H](O)CO; test: purified protein; format: biochemical, Coprinopsis cinerea; details: 50 mM Tris-HCl pH 8.5, 1 µM PQQ, 1 mM CaCl2, 50 µM cytochrome c, 30 °C, background reduction by D-glucosone subtracted

| Molecule | Kd [1] [nM] | Km [2] | kcat [2] [s⁻¹] | kcat/Km [2] [M⁻¹ s⁻¹] |
| --- | --- | --- | --- | --- |
| O=C(O)c1cc(C(=O)O)c2c(n1)C(=O)C(=O)c1cc(C(=O)O)[nH]c1-2 [Pyrroloquinoline quinone] | 1.11 | – | – | – |
| CcSDH (C. cinerea sugar dehydrogenase), full-length recombinant (Coprinopsis cinerea) (protein, mature protein without 18-residue signal peptide (726-aa ORF); AA8 cytochrome b + PQQ dehydrogenase + CBM1 domains; secreted from Pichia pastoris (pPICZalpha), glycosylated, 98 kDa on SDS-PAGE; genome locus Chromosome 6:1274274-1277156) QGSPTQWYDSITGVTFSRFYQQDTDASWGYIFPSASGGQAPDEFIGLFQGPASAGWIGNSLGGSMRNNPLLVGWVDGSTPRISARWATDYAPPSIYSGPRLTILGSSGTNGNIQRIVYRCQNCTRWTGGAGGIPTTGSAVFGWAFHSTTKPLTPSDPSSGLYRHSHAAQYGFDIGNARTTLYDYYLQQLTNAPPLSGGAPTQPPTQQPPTTTAPPPPPPSSTFVSCPGAPQPRYQMNVANGFRVAPVLGGLTMPRGITLDTRGNLLVVERGRGLTGHTLDANGCVTSSKVVIQDTQINHGIDVHPSGRRIIASSGDIAWSWDYDPATMTATNRRTLVTGMNNFYHFTRTVHISRKYPNLFALNVGSDGNIDVPTRQQNSGRAQIRVFDYDQLPQNGVPFVSQYGRVLGYGLRNDVGITEDRAGNIHSIENSLDNAYRMVNGQRRDIHTNNPAEKVYNLGDPSNPRAIFGGYPDCYTVWEPSDFTDSPKQPGDWFTQDNSGQYTDAWCNANAVKPTLLLPPHTAPLDMKFGLGNDTNLYVALHGSWNRQPPQGYKVVVVPGQYSASGEWSPTAPLAQSRTAWSDLLTNRNENQCSGFGNANCFRPVGLVWSADGQNLYVSSDTSGEVFIIKRMSGPIVQPPITQPPITTSPPTPTTPPVVQPPTTVAPPQASQTLWGQCGGQGWTGPTLCPANSVCRESNQWYSQCVPA | – | 7.9 (±0.3) mM | 74.1 ± 1.4 | 9370 |
